Assay results from the RNAGym collection of RNA variant scans (doi:10.1021/acssynbio.7b00057).

B1: Pistol ribozyme (parent)
chain: GGGUCGUUGUUCCAUAAUCGCGUGGAUAUGGCACGCAAGUUUCUACCGGGCACCGUAAAUGUCCGACUGGAGCCGUUCGGGCGGCUAUAAACAGACCUCAGGCCCGAAGCGUGGCGGCACCUGCCGCCGGUGGUAAAAAAGAUCGGAAGAGCACACGUCU

Variants of: B1
Experiment: aptazyme ON/OFF ratio, guanine; higher = stronger switching; co-transcriptional cleavage with and without guanine

Variant	aptazyme ON/OFF ratio
U7C U8A G9C U10C C12U	1.15
U7C U8A G9C U10C C12G	1.03
U7C U8A G9C U10C C12A	1.04
U7C U8A G9C U10C U11C C12U	1.02
U7C U8A G9C U10C U11C C12A	1.06
U7C U8A G9C U10C U11C C12G	1.04
U7C U8A G9C U10A U11A C12A C13A	1.19
U7C U8A G9C U10A U11A C12A C13U	1.2
U7C U8A G9C U10A U11A C12A C13G	1.12
U7C U8A G9C U10C U11G C12G C13U	1.07
U7C U8A G9C U10C U11G C12G C13A	1.11
U7C U8A G9C U10C U11G C12G C13G	1.11
U7C U8A G9C U10C C12G C13G	1.07
U7C U8A G9C U10C C12G C13U	1.07
U7C U8A G9C U10C C12G C13A	1.06
U7C U8A G9C U10G U11A C12G C13U	1.13
U7C U8A G9C U10G U11A C12G C13A	1.1
U7C U8A G9C U10G U11A C12G C13G	1.19
U7C U8A G9C U10A U11C C13A	1.06
U7C U8A G9C U10A U11C C13G	1.05
U7C U8A G9C U10A U11C C13U	1.02
U7C U8A G9C U10A U11A C12U C13U	1.11
U7C U8A G9C U10A U11A C12U C13G	1.1
U7C U8A G9C U10A U11A C12U C13A	1.05

Variant	aptazyme ON/OFF ratio
U7C U8A G9C U10A U11G C12A	1.06
U7C U8A G9C U10A U11G C12U	1.21
U7C U8A G9C U10A U11G C12G	1.31
U7C U8A G9C U10A U11A C12U	1.2
U7C U8A G9C U10A U11A C12A	1.16
U7C U8A G9C U10A U11A C12G	1.18
U7C U8A G9C U10C U11A C12A	1.03
U7C U8A G9C U10C U11A C12U	1.06
U7C U8A G9C U10C U11A C12G	1.03
U7C U8A G9C U10C U11C	1.01
U7C U8A G9C U10C U11G	0.891
U7C U8A G9C U10C U11A	0.786
U7C U8A G9C U10G C12A C13U	1.13
U7C U8A G9C U10G C12A C13A	1.23
U7C U8A G9C U10G C12A C13G	1.09
U7C U8A G9C U10C C12U C13G	1.06
U7C U8A G9C U10C C12U C13U	1.05
U7C U8A G9C U10C C12U C13A	1.06
U7C U8A G9C U10G C13U	1.35
U7C U8A G9C U10G C13G	1.11
U7C U8A G9C U10G C13A	1.15
U7C U8A G9C U10A C13A	1.17
U7C U8A G9C U10A C13U	1.24
U7C U8A G9C U10A C13G	1.07

Variant	aptazyme ON/OFF ratio
U7C U8A G9C U10G U11A C12A	1.38
U7C U8A G9C U10G U11A C12G	1.32
U7C U8A G9C U10G U11A C12U	1.08
U7C U8A G9C U10C U11A C13G	1.2
U7C U8A G9C U10C U11A C13A	1.09
U7C U8A G9C U10C U11A C13U	1.13
U7C U8A G9C U10G U11A	1.05
U7C U8A G9C U10G U11C	1.1
U7C U8A G9C U10A U11A C12G C13G	1.12
U7C U8A G9C U10A U11A C12G C13A	1.1
U7C U8A G9C U10A U11A C12G C13U	1.16
U7C U8A G9C C12U C13U	1.19
U7C U8A G9C C12U C13A	1.12
U7C U8A G9C C12U C13G	1.07
U7C U8A G9C U10A U11A C13A	1.2
U7C U8A G9C U10A U11A C13U	1.19
U7C U8A G9C U10A U11A C13G	1.15
U7C U8A G9C U10C U11G C12U C13A	1.05
U7C U8A G9C U10C U11G C12U C13U	1.1
U7C U8A G9C U10C U11G C12U C13G	1.11
U7C U8A G9C U10C U11C C12U C13A	1.03
U7C U8A G9C U10C U11C C12U C13G	1.03
U7C U8A G9C U10C U11C C12U C13U	1.02
U7C U8A G9C U10A U11G C12G C13U	1.1

Variant	aptazyme ON/OFF ratio
U7C U8A G9C U10A U11G C12G C13A	1.1
U7C U8A G9C U10A U11G C12G C13G	1.15
U7C U8A G9C U10A U11G C12A C13G	1.12
U7C U8A G9C U10A U11G C12A C13A	1.13
U7C U8A G9C U10A U11G C12A C13U	1.14
U7C U8A G9C U10C U11G C12G	1.09
U7C U8A G9C U10C U11G C12U	1.08
U7C U8A G9C U10C U11G C12A	1.11
U7C U8A G9C U10C U11C C12G C13A	1.04
U7C U8A G9C U10C U11C C12G C13G	1.04
U7C U8A G9C U10C U11C C12G C13U	1.04
U7C U8A G9C U10G U11A C12A C13G	1.13
U7C U8A G9C U10G U11A C12A C13A	1.17
U7C U8A G9C U10G U11A C12A C13U	1.33
U7C U8A G9C U10C U11C C12A C13U	1.05
U7C U8A G9C U10C U11C C12A C13G	1
U7C U8A G9C U10C U11C C12A C13A	1.04
U7C U8A G9C U10C U11A C12G C13G	1.1
U7C U8A G9C U10C U11A C12G C13A	1.1
U7C U8A G9C U10C U11A C12G C13U	1.12
U7C U8A G9C U10C C13G	1.05
U7C U8A G9C U10C C13A	1.03
U7C U8A G9C U10C C13U	1.23
U7C U8A G9C U10C U11G C12A C13A	1.21

Variant	aptazyme ON/OFF ratio
U7C U8A G9C U10C U11G C12A C13U	1.08
U7C U8A G9C U10C U11G C12A C13G	1.17
U7C U8A G9C U10A C12U	1.22
U7C U8A G9C U10A C12A	1.2
U7C U8A G9C U10A C12G	1.26
U7C U8A G9C U10C U11A C12A C13A	1.07
U7C U8A G9C U10C U11A C12A C13G	1.11
U7C U8A G9C U10C U11A C12A C13U	1.04
U7C U8A G9C U10A C12A C13G	1.14
U7C U8A G9C U10A C12A C13U	1.21
U7C U8A G9C U10A C12A C13A	1.26
U7C U8A G9C U10C C12A C13G	1.07
U7C U8A G9C U10C C12A C13U	1.06
U7C U8A G9C U10C C12A C13A	1.05
U7C U8A G9C U10A C12G C13U	1.26
U7C U8A G9C U10A C12G C13G	1.21
U7C U8A G9C U10A C12G C13A	1.11
U7C U8A G9C U10C U11A C12U C13A	1.04
U7C U8A G9C U10C U11A C12U C13G	1.05
U7C U8A G9C U10C U11A C12U C13U	1.04
U7C U8A G9C U10A U11C C12A C13G	1.14
U7C U8A G9C U10A U11C C12A C13A	1.19
U7C U8A G9C U10A U11C C12A C13U	1.15
U7C U8A G9C U10C U11G C13G	1.06

Variant	aptazyme ON/OFF ratio
U7C U8A G9C U10C U11G C13U	1.16
U7C U8A G9C U10C U11G C13A	1.1
U7C U8A G9C U10G C12U C13A	1.18
U7C U8A G9C U10G C12U C13G	1.17
U7C U8A G9C U10G C12U C13U	1.26
U7C U8A G9C U10A U11G C13A	1.12
U7C U8A G9C U10A U11G C13G	1.02
U7C U8A G9C U10A U11G C13U	1.16
U7C U8A G9C U10A U11A	1.27
U7C U8A G9C U10A U11C	1.05
U7C U8A G9C U10A U11G	1.29
U7C U8A G9C U10A U11C C12U C13G	1.1
U7C U8A G9C U10A U11C C12U C13U	1.12
U7C U8A G9C U10A U11C C12U C13A	1.18
U7C U8A G9C U10G	1.97
U7C U8A G9C U10A	1.74
U7C U8A G9C U10C	2.31
U7C U8A G9C U10A U11G C12U C13U	1.13
U7C U8A G9C U10A U11G C12U C13A	1.1
U7C U8A G9C U10A U11G C12U C13G	1.08
U7C U8A G9C U10G C12G C13U	1.15
U7C U8A G9C U10G C12G C13A	1.32
U7C U8A G9C U10G C12G C13G	1.13
U7C U8A G9C U10G U11A C13A	1.08

Variant	aptazyme ON/OFF ratio
U7C U8A G9C U10G U11A C13U	1.04
U7C U8A G9C U10G U11A C13G	1.11
U7C U8A G9C U10C U11C C13A	1.01
U7C U8A G9C U10C U11C C13U	1.03
U7C U8A G9C U10C U11C C13G	1
U7C U8A G9C U10A C12U C13A	1.09
U7C U8A G9C U10A C12U C13U	1.06
U7C U8A G9C U10A C12U C13G	1.11
U7C U8A G9C U10A U11C C12G C13G	1.29
U7C U8A G9C U10A U11C C12G C13A	1.29
U7C U8A G9C U10A U11C C12G C13U	1.36
U7C U8A G9C U10G U11A C12U C13G	1.13
U7C U8A G9C U10G U11A C12U C13U	1.14
U7C U8A G9C U10G U11A C12U C13A	1.16
U7C U8A G9C U10A U11C C12U	1.08
U7C U8A G9C U10A U11C C12G	1.2
U7C U8A G9C U10A U11C C12A	1.28
U7C U8A G9C C13G	1.04
U7C U8A G9C C13U	1.05
U7C U8A G9C C13A	1.02
U7C U8A G9C U10G C12G	1.28
U7C U8A G9C U10G C12A	1.17
U7C U8A G9C U10G C12U	1.36
